Experimental data taken from US20150071855A1 (LONDON HEALTH SCIENCES CENTRE RESEARCHING, published 2015).

Molecular target: T1, recombinant GST-EGFL7 protein (UniProt Q9UHF1 24-273)
T1 construct: Expressed in Sf21 insect cells by baculovirus and purified on glutathione-agarose; The sense primer encodes MRGSQEV, which fits human EGFL7; also called purified EGFL7 protein; recombinant EGFL7; not shown: glutathione-S-transferase (GST) tag from the pDEST20 plasmid (Invitrogen); TEV site/linker region carried over from pENTR/TEV/D-TOPO
T1 sequence (looked up): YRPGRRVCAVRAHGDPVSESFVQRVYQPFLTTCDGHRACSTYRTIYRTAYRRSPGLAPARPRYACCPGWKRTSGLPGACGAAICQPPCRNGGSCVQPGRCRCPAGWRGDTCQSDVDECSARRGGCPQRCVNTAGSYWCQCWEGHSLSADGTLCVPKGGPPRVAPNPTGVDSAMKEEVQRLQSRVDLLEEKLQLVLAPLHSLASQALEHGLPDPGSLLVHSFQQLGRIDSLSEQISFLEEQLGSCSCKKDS
Assay: SPR imaging (GWC); peptide immobilised on gold spots, purified EGFL7 protein in solution; fit with 'association then dissociation' in GraphPad Prism
Experimental: Peptides were immobilized onto gold spots using standard protocols from the GWC manual. Peptides were then exposed to 500 μL of purified EGFL7 protein. The % change in reflectivity (% R) for each of the spots containing the peptides was collected using V++ Precision Digital Imaging Systems, version 5.0 software and the dissociation constants (KD) were calculated using the ‘association then dissociation’ equation in GraphPad Prism, version 5.0.

B1: GSLLVHSFQQLG (peptide)
peptide: GSLLVHSFQQLG
notes: Immobilised on gold spots for the SPR imaging study; also called LCE71; LCE77
A Kd of 14.7 nM was found for B1 in this work.
